In patent US20100329980A1 (GENE TECHNO SCIENCE, published 2010):
Blank lines part the entries; values can stand above or below the binder they belong to. Ends that are not written are not given here.

Key:
human α4 integrin [1] = molecular target: T1, human α4 integrin (human, UniProt P13612 34-1032); test: hybridoma screening on transfected CHO-K1 cells
T1 construct: whole, on cells; also called Human α4/CHO-K1 cells; CHO K1 cells expressing human α4 integrin
T1 sequence (looked up): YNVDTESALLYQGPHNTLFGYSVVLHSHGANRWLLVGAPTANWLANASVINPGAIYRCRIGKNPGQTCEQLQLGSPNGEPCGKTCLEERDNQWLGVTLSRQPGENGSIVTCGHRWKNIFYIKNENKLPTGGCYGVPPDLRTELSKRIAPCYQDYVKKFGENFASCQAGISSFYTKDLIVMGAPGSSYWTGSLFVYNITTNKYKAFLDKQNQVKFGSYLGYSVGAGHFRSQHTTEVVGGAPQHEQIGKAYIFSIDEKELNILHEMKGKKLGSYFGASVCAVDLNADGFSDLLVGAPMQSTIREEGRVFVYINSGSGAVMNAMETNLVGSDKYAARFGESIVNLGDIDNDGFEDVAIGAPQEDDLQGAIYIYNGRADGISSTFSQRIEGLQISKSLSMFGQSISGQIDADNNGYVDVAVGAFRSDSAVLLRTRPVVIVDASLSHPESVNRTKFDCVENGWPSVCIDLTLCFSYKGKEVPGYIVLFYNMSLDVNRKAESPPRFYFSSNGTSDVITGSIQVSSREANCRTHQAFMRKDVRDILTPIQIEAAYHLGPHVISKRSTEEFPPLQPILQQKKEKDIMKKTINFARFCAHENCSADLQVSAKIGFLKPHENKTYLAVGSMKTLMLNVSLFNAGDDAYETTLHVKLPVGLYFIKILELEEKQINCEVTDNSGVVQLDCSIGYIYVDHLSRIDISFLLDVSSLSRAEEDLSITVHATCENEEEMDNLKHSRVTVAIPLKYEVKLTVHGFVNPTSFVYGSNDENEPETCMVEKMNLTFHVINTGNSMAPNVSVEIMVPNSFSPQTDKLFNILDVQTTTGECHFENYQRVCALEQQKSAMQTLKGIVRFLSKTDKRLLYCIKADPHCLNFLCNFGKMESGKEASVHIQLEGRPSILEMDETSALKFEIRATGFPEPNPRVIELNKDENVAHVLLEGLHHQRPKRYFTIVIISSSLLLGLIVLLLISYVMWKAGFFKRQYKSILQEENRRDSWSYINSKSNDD

human α4 integrin [2] = molecular target: T1, human α4 integrin; test: FACS, FITC-labeled anti-mouse IgG secondary
Protocol: Whether the anti-human α9 integrin antibodies were usable for FACS was examined using Human α9/CHO-K1 cells, CHO-K1 cells and human neutrophils endogenously expressing the α9 integrin. In human neutrophils, FACS analysis was conducted at the cell count of 1.0×10⁵ and antibodies were reacted on ice. Non-specific reaction with the Fc receptor was blocked with 50% goat serum. FITC-labeled anti-mouse IgG antibody was used as a secondary antibody. As a result (see FIGS. 20a, 20b and 20c), all of the anti-human α9 integrin antibodies could detect the α9 integrin on Human α9/CHO-K1 and human neutrophils. None of the antibodies reacted with Human α4/CHO-K1 cells (see FIGS. 20a, 20b and 20c).

[3] = molecular target: T2, Human α9 integrin sequence CAHRWKNIYYEADHI (SEQ ID NO: 80) (human, also: coupled to cellulose membrane via C6-spacer and 2 βAla, end not given here); test: peptide spot membrane, peroxidase-labelled antibody, ECL
T2 construct: Spots were twelve-residue peptides offset by three residues
T2 peptide: CAHRWKNIYYEADHI
Protocol: (§1) Twelve-residue polypeptides, starting from N-terminal of human α9 integrin and every three residues thereafter (i.e., amino acid residues 1-12, 4-15, 7-18, and so forth) were prepared and coupled to a cellulose membrane via C6-spacer and 2 βAla residues at 5 nmol/spot. The membrane was blocked with a blocking buffer (milk/0.05% Tween20 in PBS) and reacted with 10 ml of solution containing 1.0 μg/ml of each of the anti-human α9 integrin monoclonal antibodies (i.e., 1K11, 21C5, 24I11 and 25 B6, respectively) labeled with peroxidase for three hours at room temperature. After washing with T-TBS, the membrane was reacted with enhanced chemiluminescence (ECL) detecting reagent for 1 minute at room temperature. The luminescence emitted as a result of the enzymatic reaction is measured and epitopes of the antibodies were determined based on the luminescence intensities. As a control, Y9A2 (see Wang et al., 1996, Am J Respir Cell Mol Biol 15, 664-672), a commercially available monoclonal antibody against human α9 integrin, was used.

[4] = molecular target: T3, Human α9 integrin sequence CSVGFPFMRSKSKYEFSV (SEQ ID NO: 90) (human, also: coupled to cellulose membrane via C6-spacer and 2 βAla, end not given here); test: as above
T3 construct: Spots were twelve-residue peptides offset by three residues
T3 peptide: CSVGFPFMRSKSKYEFSV
Protocol: as §1

[5] = molecular target: T4, Human α9 integrin sequence … (SEQ ID NO: 79) (human, coupled to a cellulose membrane via C6-spacer and 2 βAla residues); test: as above
T4 construct: Spots were twelve-residue peptides offset by three residues
Protocol: as §1

[6] = molecular target: T5, Human α9 integrin sequence RHYVAHVKRRVQDVISPI (SEQ ID NO: 87) (human, also: coupled to cellulose membrane via C6-spacer and 2 βAla, end not given here); test: as above
T5 construct: Spots were twelve-residue peptides offset by three residues
T5 peptide: RHYVAHVKRRVQDVISPI
Protocol: as §1

[7] = molecular target: T6, Human α9 integrin sequence KSPGAVFKCRVHTNPDRR (SEQ ID NO: 78) (human, also: coupled to cellulose membrane via C6-spacer and 2 βAla, end not given here); test: as above
T6 construct: Spots were twelve-residue peptides offset by three residues
T6 peptide: KSPGAVFKCRVHTNPDRR
Protocol: as §1

[8] = molecular target: T7, Human α9 integrin sequence GFCYIIPSNLQAKGRTLI (SEQ ID NO: 81) (human, also: coupled to cellulose membrane via C6-spacer and 2 βAla, end not given here); test: as above
T7 construct: Spots were twelve-residue peptides offset by three residues
T7 peptide: GFCYIIPSNLQAKGRTLI
Protocol: as §1

[9] = molecular target: T8, Human α9 integrin sequence VMGAPGSFYWAGTIKVLN (SEQ ID NO: 82) (human, also: coupled to cellulose membrane via C6-spacer and 2 βAla, end not given here); test: as above
T8 construct: Spots were twelve-residue peptides offset by three residues
T8 peptide: VMGAPGSFYWAGTIKVLN
Protocol: as §1

[10] = molecular target: T9, Human α9 integrin sequence QYSMKLSGQKINPVLRMFGQSISG (SEQ ID NO: 85) (human, coupled to a cellulose membrane via C6-spacer and 2 βAla residues); test: as above
T9 construct: Spots were twelve-residue peptides offset by three residues
T9 peptide: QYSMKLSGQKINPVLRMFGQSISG
Protocol: as §1

[11] = molecular target: T10, Human α9 integrin sequence YLALGAVKNISL (SEQ ID NO: 89) (human, also: coupled to cellulose membrane via C6-spacer and 2 βAla (end not given here)); test: as above
T10 construct: Spots were twelve-residue peptides offset by three residues
T10 peptide: YLALGAVKNISL
Protocol: as §1

[12] = molecular target: T11, Human α9 integrin sequence SSSVIQFMSRAKVKVDPALRV (SEQ ID NO: 91) (human, coupled to a cellulose membrane via C6-spacer and 2 βAla residues); test: as above
T11 construct: Spots were twelve-residue peptides offset by three residues
T11 peptide: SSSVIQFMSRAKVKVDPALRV
Protocol: as §1

[13] = molecular target: T12, Human α9 integrin sequence VIMNRRYTYLGYAVT (SEQ ID NO: 83) (human, also: coupled to cellulose membrane via C6-spacer and 2 βAla, end not given here); test: as above
T12 construct: Spots were twelve-residue peptides offset by three residues
T12 peptide: VIMNRRYTYLGYAVT
Protocol: as §1

[14] = molecular target: T13, Human α9 integrin sequence … (SEQ ID NO: 86) (human, coupled to a cellulose membrane via C6-spacer and 2 βAla residues); test: as above
T13 construct: Spots were twelve-residue peptides offset by three residues
Protocol: as §1

[15] = molecular target: T14, Human α9 integrin sequence … (SEQ ID NO: 84) (human, coupled to a cellulose membrane via C6-spacer and 2 βAla residues); test: as above
T14 construct: Spots were twelve-residue peptides offset by three residues
Protocol: as §1

binding result (human α4 integrin [1]): no binding
B1: 21C5 mouse anti-human α9 integrin monoclonal antibody (FERM BP-10511) (antibody, mouse IgG1, V domains shown)
VH: VQLQESGGGLVKPGGSLKLSCAASGFTFSDYYMYWVRQTPEKRLEWVATISDGGNYTYYPDSVKGRFTISRDNAKNNLYLQMSSLKSEDTAMYYCARDRDGSSLFAYWGQGTTVTVSS
VL: KFMSTSVGDRVSITCKASQDVNIAVAWYQQRPGQSPKLLIYWASTRHTGVPDRFTGSGSGTDYTLTISSVQAEDLALYYCQQHYNTPWTFGGGTKLEIKR
notes: Mouse IgG1 from hybridoma; cloned with degenerate primers

binding result (human α4 integrin [2]): no binding
B2: 28S1 mouse anti-human α9 integrin monoclonal antibody (FERM BP-10832) (antibody, mouse IgG1, V domains shown)
VH: VKLQESGPGLVAPSQSLSITCTVSGFSLTGYGVNWVRQPPGKGLEWLGMIWGDGITEYNSALKSRLSISKDNSKSQVFLKMNSLQTDDTARYYCARDASSGYGFAYWGQGTTVTVSS
VL: YIVLTQSPAIMSASLGERVTMTCTASSSVSSSYLHWYQQKPGSSPKLWIYSTSNLASGVPARFSGSGSGTSYSLTISSMEAEDAATYYCHQYHRSPYTFGGGTKLEIKR
notes: Mouse IgG1 from hybridoma

binding result [3]: binds | binding result [4]: binds | binding result [5]: binds | binding result [6]: binds | binding result [7]: binds | binding result [8]: binds | binding result [9]: binds | binding result [10]: binds | binding result [11]: binds | binding result [12]: binds | binding result [13]: binds | binding result [14]: binds | binding result [15]: binds | binding result (human α4 integrin [1]): no binding
B3: 1K11 mouse anti-human α9 integrin monoclonal antibody (FERM BP-10510) (antibody, mouse IgG1, V domains shown)
VH: VQLQESGPELVKPGASVKIPCKASGYTFTDYNMDWVKQSHGKSLEWIGDINPNNGGTIYNQKFQGKATLTVDKSSSTAYMELRSLTSEDTAVYYCARSGVISTDYWGQGTTVTVSS
VL: DIQMTQSPPSLSASLGERVSLTCRASQEISGYLIWLQQKPDGTIQRLIYAASTLDSGVPKRFSGSRSGSDYSLTISSLESEDFADYYCLQYANYPPTFGGGTKLEIKR
notes: Mouse IgG1 from hybridoma

binding result [3]: binds | binding result [4]: binds | binding result [5]: binds | binding result [6]: binds | binding result [7]: binds | binding result [8]: binds | binding result [9]: binds | binding result [12]: binds | binding result [13]: binds | binding result [15]: binds | binding result (human α4 integrin [2]): no binding
B4: 24I11 mouse anti-human α9 integrin monoclonal antibody (FERM BP-10512) (antibody, mouse IgG1, V domains shown)
VH: EVQLQQSGAELVKPGASVKLSCTASGFNIKDTYVHWVKQRPEQGLEWIGNIDPANGNTKYDPKFQGKATITADTSSNTAYLHLSSLTSEDTAVYYCARWLRHFYYAMDYWGQGTSVTVSS
VL: DIQMTQSPASLAASVGETVTITCRASENIYYSLAWYQQKQGKSPQLLIYNANSLEDGVPSRFSGSGSGTQYSMKINSMQPEDTATYFCKQAYDVPYTFGGGTKLEIK
notes: Mouse IgG1/kappa from hybridoma; also called mouse 24I11
